Results taken from paper PMC3616122, “Crystal Structure of KLHL3 in Complex with Cullin3” (PLoS ONE, 2013).

Experiments:
[1] = target: T1, Cul3^NTD, N-terminal domain of Cullin3 residues 20-381 with stabilizing mutations I342R/L346D (human, UniProt Q13618 20-381, I342R | L346D); experiment: ITC; VP-ITC at 25°C in buffer A; KLHL3^BTB-BACK at 150 µM injected into Cul3^NTD at 15 µM; one-site binding model; a single titration for each protein; details: both partners purified
T1 construct: residues 26-379 are in the final model; also called Cul3 N-terminal domain; source: E. coli BL21 DE3 Codon+, purified (NiNTA, TEV cleavage, Superdex S75 SEC); not shown: thioredoxin, N-terminal, cleaved; His tag, N-terminal, cleaved
T1 sequence (Q13618 20-381 I342R/L346D): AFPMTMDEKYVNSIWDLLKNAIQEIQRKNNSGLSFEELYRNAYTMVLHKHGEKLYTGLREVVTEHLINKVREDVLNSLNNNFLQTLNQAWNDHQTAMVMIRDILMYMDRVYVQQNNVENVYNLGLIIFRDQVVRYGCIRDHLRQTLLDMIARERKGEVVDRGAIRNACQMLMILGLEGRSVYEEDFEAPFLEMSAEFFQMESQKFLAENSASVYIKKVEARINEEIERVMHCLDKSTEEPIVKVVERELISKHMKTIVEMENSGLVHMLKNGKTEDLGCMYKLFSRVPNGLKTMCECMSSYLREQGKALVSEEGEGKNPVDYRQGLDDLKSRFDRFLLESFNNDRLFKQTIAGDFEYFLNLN

[2] = target: the molecule itself; experiment: SEC; Superdex S75 in buffer A (20 mM Tris pH 7.5, 150 mM NaCl, 1 mM TCEP, 10% v/v glycerol), elution monitored at 280 nm; proteins alone and an equimolar mixture
[3] = target: T1, Cul3^NTD, N-terminal domain of Cullin3 …; experiment: crystal structure; KLHL3^BTB-BACK (SER version) and Cul3^NTD mixed 1:1 at 10 mg/ml total; hanging drop, 0.1 M sodium tartrate, 17% w/v PEG 3350, room temperature; 3.5 Å; one chain of each in the asymmetric unit, BTB homodimer by a crystallographic 2-fold; details: both partners purified
[4] = target: the molecule itself; experiment: as above

B1: KLHL3^BTB-BACK, human KLHL3 residues 27-276, wild type (domain or fragment, UniProt Q9UH77 27-276, looked up)
chain: TVNPAHMGKAFKVMNELRSKQLLCDVMIVAEDVEIEAHRVVLAACSPYFCAMFTGDMSESKAKKIEIKDVDGQTLSKLIDYIYTAEIEVTEENVQVLLPAASLLQLMDVRQNCCDFLQSQLHPTNCLGIRAFADVHTCTDLLQQANAYAEQHFPEVMLGEEFLSLSLDQVCSLISSDKLTVSSEEKVFEAVISWINYEKETRLEHMAKLMEHVRLPLLPRDYLVQTVEEEALIKNNNTCKDFLIEAMKYH
notes: KLHL3, human, residues 27-276 (BTB and BACK domains), without the surface entropy reduction mutations; PDB 4HXI holds the same limits with K87A/K89A/K90A; Removal of the His tag is told only for Cul3^NTD; also called wild-type KLHL3^BTB-BACK; source: E. coli BL21 DE3 Codon+, purified (NiNTA, Superdex S75 SEC)
[1]
  Kd: 0.108 µM
  stoichiometry N: 1
[2]
  stoichiometry N: 2

B2: KLHL3^BTB-BACK M78V (PHAII mutation) (domain or fragment, human, UniProt Q9UH77 27-276, looked up)
chain: TVNPAHMGKAFKVMNELRSKQLLCDVMIVAEDVEIEAHRVVLAACSPYFCAVFTGDMSESKAKKIEIKDVDGQTLSKLIDYIYTAEIEVTEENVQVLLPAASLLQLMDVRQNCCDFLQSQLHPTNCLGIRAFADVHTCTDLLQQANAYAEQHFPEVMLGEEFLSLSLDQVCSLISSDKLTVSSEEKVFEAVISWINYEKETRLEHMAKLMEHVRLPLLPRDYLVQTVEEEALIKNNNTCKDFLIEAMKYH
notes: KLHL3, human, residues 27-276, PHAII patient mutation M78V introduced into the wild-type KLHL3^BTB-BACK plasmid; PDB 4HXI holds the same limits with K87A/K89A/K90A and without M78V; source: E. coli BL21 DE3 Codon+, purified (NiNTA, Superdex S75 SEC)
[2]
  stoichiometry N: 2

B3: KLHL3^BTB-BACK A77E (PHAII mutation) (domain or fragment, human, UniProt Q9UH77 27-276, looked up)
chain: TVNPAHMGKAFKVMNELRSKQLLCDVMIVAEDVEIEAHRVVLAACSPYFCEMFTGDMSESKAKKIEIKDVDGQTLSKLIDYIYTAEIEVTEENVQVLLPAASLLQLMDVRQNCCDFLQSQLHPTNCLGIRAFADVHTCTDLLQQANAYAEQHFPEVMLGEEFLSLSLDQVCSLISSDKLTVSSEEKVFEAVISWINYEKETRLEHMAKLMEHVRLPLLPRDYLVQTVEEEALIKNNNTCKDFLIEAMKYH
notes: KLHL3, human, residues 27-276, PHAII patient mutation A77E introduced into the wild-type KLHL3^BTB-BACK plasmid; PDB 4HXI holds the same limits with K87A/K89A/K90A and without A77E; source: E. coli BL21 DE3 Codon+, purified (NiNTA, Superdex S75 SEC)
[2]
  stoichiometry N: 2

B4: KLHL3^BTB-BACK E85A (PHAII mutation) (domain or fragment, human, UniProt Q9UH77 27-276, looked up)
chain: TVNPAHMGKAFKVMNELRSKQLLCDVMIVAEDVEIEAHRVVLAACSPYFCAMFTGDMSASKAKKIEIKDVDGQTLSKLIDYIYTAEIEVTEENVQVLLPAASLLQLMDVRQNCCDFLQSQLHPTNCLGIRAFADVHTCTDLLQQANAYAEQHFPEVMLGEEFLSLSLDQVCSLISSDKLTVSSEEKVFEAVISWINYEKETRLEHMAKLMEHVRLPLLPRDYLVQTVEEEALIKNNNTCKDFLIEAMKYH
notes: KLHL3, human, residues 27-276, PHAII patient mutation E85A introduced into the wild-type KLHL3^BTB-BACK plasmid; PDB 4HXI holds the same limits with K87A/K89A/K90A and without E85A; source: E. coli BL21 DE3 Codon+, purified (NiNTA, Superdex S75 SEC)
[2]
  stoichiometry N: 2

B5: KLHL3^BTB-BACK C164F (PHAII mutation) (domain or fragment, human, UniProt Q9UH77 27-276, looked up)
chain: TVNPAHMGKAFKVMNELRSKQLLCDVMIVAEDVEIEAHRVVLAACSPYFCAMFTGDMSESKAKKIEIKDVDGQTLSKLIDYIYTAEIEVTEENVQVLLPAASLLQLMDVRQNCCDFLQSQLHPTNCLGIRAFADVHTFTDLLQQANAYAEQHFPEVMLGEEFLSLSLDQVCSLISSDKLTVSSEEKVFEAVISWINYEKETRLEHMAKLMEHVRLPLLPRDYLVQTVEEEALIKNNNTCKDFLIEAMKYH
notes: KLHL3, human, residues 27-276, PHAII patient mutation C164F introduced into the wild-type KLHL3^BTB-BACK plasmid; PDB 4HXI holds the same limits with K87A/K89A/K90A and without C164F; source: E. coli BL21 DE3 Codon+, purified (NiNTA, Superdex S75 SEC)
[1]
  Kd: 4.1 µM
[2]
  stoichiometry N: 2

B6: KLHL3^BTB-BACK, human KLHL3 residues 27-276, surface entropy reduction version K87A/K89A/K90A used in crystallization (domain or fragment, UniProt Q9UH77 27-276, looked up)
chain: TVNPAHMGKAFKVMNELRSKQLLCDVMIVAEDVEIEAHRVVLAACSPYFCAMFTGDMSESAAAAIEIKDVDGQTLSKLIDYIYTAEIEVTEENVQVLLPAASLLQLMDVRQNCCDFLQSQLHPTNCLGIRAFADVHTCTDLLQQANAYAEQHFPEVMLGEEFLSLSLDQVCSLISSDKLTVSSEEKVFEAVISWINYEKETRLEHMAKLMEHVRLPLLPRDYLVQTVEEEALIKNNNTCKDFLIEAMKYH
notes: KLHL3, human, residues 27-276 (BTB and BACK domains) with three lysines mutated to alanine for crystallization; residues 32-223 are in the final model; also called KLHL3^BTB-BACK (SER); source: E. coli BL21 DE3 Codon+, purified (NiNTA, Superdex S75 SEC)
[3]
  binding result: binds
[4]
  binding result: binds
